Patent publication US20230364186A1 (CURA THERAPEUTICS, published 2023)

Tests used:
Human active TGFβ1 = target: T1, Human active TGFβ1 (human, UniProt P01137 279-390); experiment: blocking of active TGFβ1 (1 ng/mL) in solution, 30 min in PBS; free TGFβ1 by ELISA
T1 construct: mature; also called TGFB1
Source text: TGFβ causes a wide range of immune suppression in several immune cell types including inhibition of crucial early innate IFN responses.

active TGFβ3 = active TGFβ3 (UniProt P10600); experiment: blocking of active TGFβ3 (1 ng/mL) in solution, 30 min in PBS; free TGFβ3 by ELISA
active TGFβ3, sequence (P10600 301-412): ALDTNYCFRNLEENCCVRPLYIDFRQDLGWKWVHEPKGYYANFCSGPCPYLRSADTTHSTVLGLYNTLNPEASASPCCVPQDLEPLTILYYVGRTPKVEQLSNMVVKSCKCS

T1 sequence (P01137 279-390 limits assumed): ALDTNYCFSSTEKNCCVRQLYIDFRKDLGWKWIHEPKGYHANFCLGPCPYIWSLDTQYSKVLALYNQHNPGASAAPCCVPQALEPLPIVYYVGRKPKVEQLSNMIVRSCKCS

IC50 (Human active TGFβ1) [nM] | IC50 (active TGFβ3) [nM] | Molecule
1.29 | 3.6 | FIST (monovalent FIST; IL2-sTBRII)
0.02 |  | TβRII isoform 2 (receptor, UniProt P37173-2 24-184, looked up, also called TβRll (isoform II); control (TβRII isoform 2)) IPPHVQKSDVEMEAQKDEIICPSCNRTAHPLRHINNDMIVTDNNGAVKFPQLCKFCDVRFSTCDNQKSCMSNCSITSICEKPQEVCVAVWRKNDENITLETVCHDPKLPYHDFILEDAASPKCIMKEKKKPGETFFMCSCSSDECNDNIIFSEEYNTSNPD
